Reference: US7449443B2, “Method for stabilization of proteins using non-natural amino acids” (California Institute of Technology, priority 2000, dated 2008)

Key:
[1] = system: E. coli leucine auxotroph SG13009; test: Analog incorporation assay: A1 expression in leucine auxotroph; type: cell-based; conditions: leucine-free medium supplemented with analog, western blot
Description: Analog Incorporation Assay. The expression vector pQE-A1, which contains the coding sequences for the protein A1 (FIG. 4A) was obtained from US Army Natick RD&E Center (Natick, Mass.). The E. coli leucine auxotroph SG13009 was obtained from Qiagen (Chatsworth, Calif.) and transformed with plasmids pREP4 and pQE-A1, to yield the expression host […] medium (30 ml) supplemented with 1 mM MgSO4, 1 mM CaCl2, […], 1 mg/L thiamin and the antibiotics ampicillin (200 mg/L) and kanamycin (25 mg/L) were inoculated with 1 ml of an overnight 2×YT culture of the expression strain. […] The supernatant was removed and the cell pellets were washed with 0.9% NaCl and sedimented (5000 g, 10 min, 4° C.). The washing and sedimentation steps were repeated three times to remove residual leucine. The washed cells were then resuspended in 31 ml of supplemented […] medium, without leucine. Aliquots (5 ml) were added to test tubes containing no leucine (negative control), L-leucine (20 mg/L, positive control), DL-trifluoroleucine (40 mg/L) or DL-hexafluoroleucine (40 mg/L). The cultures were grown for 10 min at 37° C., and isopropyl-β-D-thiogalactopyranoside (IPTG) was added to a final concentration of 1 mM. […] The whole cell lysate was analyzed by 15% SDS-PAGE. The proteins were detected by western blotting with an antibody specific for the N-terminal His-Tag of A1 (FIG. 4B).

[2] = molecular target: LeuRS (Escherichia coli, UniProt P07813); test: Level of Tfl incorporation versus leucine concentration in expression medium; type: cell-based, E. coli; conditions: estimated from 50% substitution at leucine 8 mg/L (50 μM) and Tfl (DL) 100 mg/L (540 μM)
LeuRS, sequence (P07813 whole entry): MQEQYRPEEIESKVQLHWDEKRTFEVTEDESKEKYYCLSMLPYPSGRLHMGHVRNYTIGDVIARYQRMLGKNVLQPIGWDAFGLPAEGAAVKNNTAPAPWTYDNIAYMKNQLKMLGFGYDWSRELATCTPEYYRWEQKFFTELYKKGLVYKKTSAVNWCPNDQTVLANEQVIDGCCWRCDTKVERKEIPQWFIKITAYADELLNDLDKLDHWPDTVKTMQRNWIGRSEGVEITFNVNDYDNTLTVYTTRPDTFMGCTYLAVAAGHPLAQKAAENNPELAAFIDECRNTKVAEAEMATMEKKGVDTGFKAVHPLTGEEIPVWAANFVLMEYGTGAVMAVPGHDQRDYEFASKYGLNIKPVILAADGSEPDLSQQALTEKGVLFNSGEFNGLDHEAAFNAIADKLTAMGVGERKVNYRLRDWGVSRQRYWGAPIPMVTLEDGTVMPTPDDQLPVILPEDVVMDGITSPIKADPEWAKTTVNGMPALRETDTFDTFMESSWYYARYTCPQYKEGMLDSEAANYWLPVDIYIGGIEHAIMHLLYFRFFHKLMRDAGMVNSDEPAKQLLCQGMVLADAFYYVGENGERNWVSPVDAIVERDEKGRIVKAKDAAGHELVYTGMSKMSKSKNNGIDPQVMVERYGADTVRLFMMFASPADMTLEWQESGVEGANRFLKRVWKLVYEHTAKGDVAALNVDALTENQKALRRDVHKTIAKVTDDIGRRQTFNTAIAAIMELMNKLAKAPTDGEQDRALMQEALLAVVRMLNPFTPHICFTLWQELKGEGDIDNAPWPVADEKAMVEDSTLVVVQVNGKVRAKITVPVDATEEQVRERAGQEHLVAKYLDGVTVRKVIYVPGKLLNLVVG
Description: Normal leucine concentration in expression medium is 40 mg/L. The extent of incorporation is determined by amino acid analysis.
Protein Expression and Purification. M9 medium (1 L) supplemented as described above was inoculated with 30 ml of fresh overnight culture of the expression strain. After the culture had grown to OD600 of 1.0, it was subjected to centrifugation and washing procedures as described above. The cell pellet was suspended in 1 L M9 medium supplemented with trifluoroleucine (100 mg/L) and leucine in appropriate concentrations. IPTG was added after 10 min to induce protein expression. The expression of protein was monitored by removing an aliquot (1 ml) of the culture every hour and analyzing by SDS-PAGE. Cells were collected after 3 hr by centrifugation (5000 g, 15 min, 4° C.). The pellets were resuspended in 20 ml of buffer A and stored at −80° C. overnight. […] Extent of trifluoroleucine incorporation was determined by amino acid analysis (DNA/Protein Analysis Facility, Cornell University) and MALDI mass spectrometry (Protein/Peptide Micro Analytical Laboratory, Caltech).
The degree of substitution is determined through the diminution of leucine mole fractions from amino acid analysis (AAA). […]

[3] = CD thermal unfolding of GCN4-p1 coiled-coil peptides; type: physicochemical
Description: (§1) Circular Dichroism (CD) Analysis. CD spectra were recorded on an Aviv 62DS spectropolarimeter (Lakewood, N.J.) in PBS buffer, pH 7.4. All peptide concentrations were determined by amino acid analysis of a stock solution (5 mg/ml). Experiments were performed in a rectangular cell with pathlength of 1 cm for low concentration samples and pathlength of 1 mm for high concentration samples. Spectra were scanned from 250 nm to 200 nm with data taken every 1 nm. The temperature of the solution was maintained by a thermostatically controlled cuvette holder (HP model 89101A). Temperature scans were performed from 0° C. to 100° C. in 1° C. steps. Three scans were performed on a single sample and averaged. Each data point was collected after 30 seconds of thermal equilibration at the desired temperature. Urea titration scans were performed manually starting with the 8 M concentrated sample followed by serial dilution to the desired urea concentration. At each concentration, the sample was allowed to equilibrate for 5 min before recording the CD signal.
(§2) The analysis of CD thermal melting data was performed according to a previously described procedure using a two-state model (Schneider, J. P.; Lear, J. D.; DeGrado, W. F. J. Am. Chem. Soc. 1997, 119, 5742-5743). Temperature-dependent ellipticity data for each protein at different concentrations were fitted globally using a non-linear least-squares fitting procedure supplied with the Origin 6.0 software. For wild-type A1, the concentrations used for curve fitting were 10 and 100 μM, while 2 and 100 μm were used to fit data for the 92% fluorinated A1. The thermodynamic quantities Tm, ΔHm, ΔCp and Kd were parameters of the fitting procedure and are reported in the 1 M standard state. The free energy of folding at any temperature is given by equation 1. ΔG°=ΔHm(1−T/Tm)−ΔCp((Tm−T)+T1n(T/Tm) (1)
The thermal stabilities of the coiled-coil dimers of Leu-GCN4-p1 and Tfl-GCN4-p1 were examined by CD spectroscopy (FIG. 2B). A significant increase in the thermal stability of Tfl-GCN4-p1 as compared to Leu-GCN4-p1 is reflected in an elevation of the thermal denaturation temperature from 48° C. to 61° C. The 13° C. increase in Tm is remarkable in view of the fact that no increase in the thermal stability of GCN4-p1 has been reported based solely on substitution of the leucine residues at the d-positions. […] As expected for a monomer-dimer equilibrium, the denaturation curves depend on the peptide concentrations, and their midpoints shift to higher temperature as the concentrations of peptides are increased (FIG. 2C). The thermodynamic changes associated with the transition (folded dimer to unfolded monomers) is calculated from the melting curves by fitting the data to a monomer-dimer equilibrium (J. P. Schneider, J. D. Lear and W. F. DeGrado, J. Am. Chem. Soc. 119, 5742, 1997). Global analysis of the thermal unfolding curves at two different concentrations, approximately 85 μM and 3 μM, gave a calculated ΔH° of 60.2 kcal mol^−1, Tm of 385.4 K and ΔCp of 530 cal mol^−1 K^−1 for Tfl-GCN4-p1 (1 M standard state); the corresponding values for Leu-GCN4-p1 are 70.3 kcal mol^−1, 365.6 K and 740 cal mol^−1 K^−1 respectively.

[4] = molecular target: oligonucleotides containing the AP-1 binding site; test: Mobility shift (gel-retardation) assay, AP-1; conditions: densitometry analysis of mobility shift assay
Source text: (§3) (FIG. 3B) Leu-bZip binds to both the AP-1 and CREB binding sites with equal affinities even though the spacing between the half-sites of DNA is different.

[5] = molecular target: oligonucleotides containing the CREB binding site; test: Mobility shift (gel-retardation) assay, CREB; conditions: densitometry analysis of mobility shift assay
Source text: as §3

[6] = system: nonspecific sequence (NON) oligonucleotides; test: Mobility shift (gel-retardation) assay, nonspecific sequence; type: binding
Source text: as §3

[7] = CD thermal denaturation of A1 proteins with two-state global fitting; type: physicochemical; conditions: for ΔCp (1M) heat capacity change upon folding: 1M standard state, uncertainty 120; for ΔHm (1M) enthalpy of folding: at midpoint temperature, extrapolated to 1M standard state, uncertainty 4.8; for Tm (1M): extrapolated to 1M standard state by non-linear least square fit, uncertainty ± 1.5° C.; for Tm (10 μM): midpoint of thermal denaturation curve at 10 μM protein
Description: Insert: The thermal melting temperature (Tm) plotted as a function of level of incorporation. Tm is defined as the temperature at which 50% of the peptide has unfolded. The stability of the protein increases with increasing level of 2trifluoroleucine substitution. (10 μM protein concentration, PBS buffer, pH 7.4).
as §1, §2
Global thermodynamic fitting was used to obtain the thermodynamic quantities associated with the monomer to dimer transition for A1-WT and FA1-92. The intermediate level fluorinated proteins, FA1-17 and FA1-29 were not fitted using the procedure because the heterogeneity of the samples would not be described accurately by the two-state model. The presence of a heterogeneous population can be seen from the broadening of the thermal melting curves at substitution rates of 17 and 29%. However, even for the nearly completely substituted FA1-92, the protein sample was still a mixed population because Tfl was used as an equal molar mixture of (2S, 4S) and (2S, 4R) diastereomers. The free energy of unfolding for FA1-92 was 2.4 kcal/mol more favorable than A1-WT at 37° C., which corresponded to 0.4 kcal/mol of stabilizing energy per Tfl molecule involved at the helix interface. Considering the large number of leucines packed in the hydrophobic core of proteins, the additive stabilizing effects of Tfl can be quite substantial.

[8] = Urea titration of A1 proteins by CD; type: physicochemical; conditions: 0° C., 10 μM protein, PBS, pH 7.4
Description: The fraction of unfolded protein is plotted against increasing urea concentration. Insert: The urea concentration at which 50% of protein is denatured is plotted against the extent of fluorination. (10 μM protein concentration, PBS buffer, pH 7.4).
as §1

[9] = global analysis of thermal unfolding curves, 1 M standard state

N[C@@H](CC(C(F)(F)F)C(F)(F)F)C(=O)O [Hfl, 5,5,5,5′,5′,5′-hexafluoroleucine]
ability to support protein synthesis (A1 expression) [1]: does not support measurable protein synthesis

CC(C[C@H](N)C(=O)O)C(F)(F)F (stereo partly shown) [Tfl, 5,5,5-trifluoroleucine]
ability to support protein synthesis (A1 expression) [1]: support protein synthesis | specificity for LeuRS compared to leucine [2]: reduced five times

Leu-GCN4-p1: wild type form of the leucine zipper peptide GCN4-p1, not acylated at the N-terminus [reference compound]
thermal denaturation temperature (Tm) ([3]; CD spectroscopy, coiled-coil dimers): 48 °C | ΔH° ([3]; global analysis of thermal unfolding curves at approximately 85 μM and 3 μM, 1 M standard state): 70.3 kcal/mol | Tm [3, 9]: 92.5 °C | ΔCp [3, 9]: 740 cal mol^−1 K^−1

Leu-bZip: wild-type 56 amino acid segment (residues 226-281) of the eukaryotic transcription factor GCN4
Kd [4]: 12.8 ± 1 nM | Kd [5]: 4.8 ± 0.5 nM | recognition of nonspecific (NON) sequences [6]: lack of protein-bound DNA

B1: FA1-92: trifluoroleucine-substituted A1 protein, 92% replacement of leucine by amino acid analysis (protein)
chain: MRGSHHHHHHGSMASGDLENEYAQLEREVRSLEDEAAELEQKVSRLKNEIEDLAEIGDLNNTSGIRRPAAKLN
Tm elevation compared to A1-WT ([7]; 10 μM protein, PBS, pH 7.4): 13 °C | ΔCp (1M) heat capacity change upon folding [7]: −272 cal/mol-K | free energy of unfolding more favorable than A1-WT ([7]; at 37° C.): 2.4 kcal/mol | stabilizing energy per Tfl molecule involved at the helix interface ([7]; at 37° C.): 0.4 kcal/mol | ΔHm (1M) enthalpy of folding [7]: -77.0 kcal/mol | Tm (1M) [7]: 116 °C | Tm (10 μM) ([7]; PBS, pH 7.4): 67 °C | resistance to thermal and chemical denaturation ([7]; thermal and chemical (urea) unfolding studies): highly resistant | Curea, 50% (Cm), midpoint urea denaturation concentration [8]: 7 M

B2: A1-WT: wild type leucine-zipper protein A1 with eight leucine residues, expressed in E. coli (protein)
chain: B1 chain
ΔCp (1M) heat capacity change upon folding [7]: −252 cal/mol-K | ΔHm (1M) enthalpy of folding [7]: -70.9 kcal/mol | Tm (1M) [7]: 103 °C | Tm (10 μM) ([7]; PBS, pH 7.4): 54 °C | Curea, 50% (Cm), midpoint urea denaturation concentration [8]: 2.7 M | Curea, 50% (Cm), midpoint urea denaturation concentration ([8]; listed as Al-WT): 2.8 M
